These are literature values, as cited in paper PMC5650667.

The target in one series is RXFP2 (Homo sapiens) (UniProt Q8WXD0).
Another series has as its target RXFP4 (Homo sapiens) (UniProt Q8TDU9).
Series [1] addresses TRH1 receptor (Homo sapiens) (UniProt P34981). As to the kind of experiment: radioligand binding.
Sequence of UniProt P34981 (P34981 whole entry): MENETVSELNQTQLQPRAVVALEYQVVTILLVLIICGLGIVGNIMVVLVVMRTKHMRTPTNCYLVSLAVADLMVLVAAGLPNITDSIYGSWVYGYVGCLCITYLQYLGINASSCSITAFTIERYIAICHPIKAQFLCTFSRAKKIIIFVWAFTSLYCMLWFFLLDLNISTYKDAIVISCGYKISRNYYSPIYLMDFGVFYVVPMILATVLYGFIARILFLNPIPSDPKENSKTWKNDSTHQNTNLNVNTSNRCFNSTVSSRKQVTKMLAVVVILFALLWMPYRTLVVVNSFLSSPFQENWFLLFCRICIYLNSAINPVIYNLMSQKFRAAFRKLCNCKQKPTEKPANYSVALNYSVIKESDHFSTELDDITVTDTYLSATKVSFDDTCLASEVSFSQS

Sequence of UniProt Q8WXD0 (Q8WXD0 whole entry): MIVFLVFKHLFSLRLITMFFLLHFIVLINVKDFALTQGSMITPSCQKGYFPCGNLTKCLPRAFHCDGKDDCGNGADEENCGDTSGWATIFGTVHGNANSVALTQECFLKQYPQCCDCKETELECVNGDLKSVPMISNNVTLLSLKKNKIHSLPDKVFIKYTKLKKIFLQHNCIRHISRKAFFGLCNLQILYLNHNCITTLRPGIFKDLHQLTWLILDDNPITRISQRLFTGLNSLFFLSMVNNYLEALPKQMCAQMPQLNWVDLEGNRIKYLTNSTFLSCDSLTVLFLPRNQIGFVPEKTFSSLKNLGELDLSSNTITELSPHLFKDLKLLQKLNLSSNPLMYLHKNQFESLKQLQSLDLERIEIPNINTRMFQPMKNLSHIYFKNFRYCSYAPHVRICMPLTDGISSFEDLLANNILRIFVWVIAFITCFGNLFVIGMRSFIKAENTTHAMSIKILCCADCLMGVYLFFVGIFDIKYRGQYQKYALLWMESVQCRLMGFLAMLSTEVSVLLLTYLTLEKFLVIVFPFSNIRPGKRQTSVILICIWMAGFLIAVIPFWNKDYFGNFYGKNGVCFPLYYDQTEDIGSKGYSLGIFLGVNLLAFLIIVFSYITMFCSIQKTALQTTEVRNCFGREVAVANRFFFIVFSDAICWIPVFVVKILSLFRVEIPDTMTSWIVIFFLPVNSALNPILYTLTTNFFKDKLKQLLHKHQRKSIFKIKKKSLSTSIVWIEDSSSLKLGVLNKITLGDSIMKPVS
Sequence of UniProt Q8TDU9 (Q8TDU9 whole entry): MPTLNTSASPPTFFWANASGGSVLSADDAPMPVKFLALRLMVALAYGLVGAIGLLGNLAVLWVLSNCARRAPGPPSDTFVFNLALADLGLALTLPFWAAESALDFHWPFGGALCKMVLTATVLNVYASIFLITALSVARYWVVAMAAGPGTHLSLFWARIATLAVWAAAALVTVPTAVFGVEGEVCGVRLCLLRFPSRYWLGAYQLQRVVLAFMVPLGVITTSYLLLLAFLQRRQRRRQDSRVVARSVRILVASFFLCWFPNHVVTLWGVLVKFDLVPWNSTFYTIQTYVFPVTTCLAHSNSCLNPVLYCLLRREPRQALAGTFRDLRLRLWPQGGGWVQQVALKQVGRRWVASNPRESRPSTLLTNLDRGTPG

Regarding INSL3 (from UniProt P51460), the Kd with RXFP2 (Homo sapiens) is 1 nM.

Turning to INSL5 (from UniProt Q9Y5Q6), the Kd with RXFP4 (Homo sapiens) was 5 nM. On to TRH (from UniProt P20396), for which the Kd in series [1] was 13 nM.

A word on the Kd: it is the constant that tells how readily two partners part at equilibrium.
